Paper PMC9482650, “Quantitative fragmentomics allow affinity mapping of interactomes” (Nature Communications, 2022)

T1: TX1BP3, O14907
T1 sequence (O14907 10-122, limits assumed, looked up): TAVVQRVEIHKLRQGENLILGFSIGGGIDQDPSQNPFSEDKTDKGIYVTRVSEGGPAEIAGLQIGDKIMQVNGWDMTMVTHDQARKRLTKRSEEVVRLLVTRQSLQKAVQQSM

T2: GRIP1_3, Q9Y3R0
T2 sequence (Q9Y3R0 247-346, limits assumed, looked up): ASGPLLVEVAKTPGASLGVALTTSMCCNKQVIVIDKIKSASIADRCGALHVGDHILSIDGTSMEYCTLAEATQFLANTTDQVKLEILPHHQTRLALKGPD

T3: GRIP1_5, Q9Y3R0
T3 sequence (Q9Y3R0 568-668, limits assumed, looked up): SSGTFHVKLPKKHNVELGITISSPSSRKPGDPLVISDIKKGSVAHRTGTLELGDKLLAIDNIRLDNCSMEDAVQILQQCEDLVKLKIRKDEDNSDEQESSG

T4: SNTB1, Q13884
T4 sequence (Q13884 107-205, limits assumed, looked up): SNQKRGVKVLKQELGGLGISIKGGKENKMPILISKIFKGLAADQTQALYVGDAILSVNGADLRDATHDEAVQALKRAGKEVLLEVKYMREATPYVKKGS

T5: RADIL, Q96JH8
T5 sequence (Q96JH8 971-1071, limits assumed, looked up): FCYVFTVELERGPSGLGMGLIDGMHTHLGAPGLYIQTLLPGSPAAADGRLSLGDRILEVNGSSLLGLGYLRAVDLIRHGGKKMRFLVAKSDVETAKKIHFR

T6: APBA2_2, Q99767
T6 sequence (Q99767 654-744, limits assumed, looked up): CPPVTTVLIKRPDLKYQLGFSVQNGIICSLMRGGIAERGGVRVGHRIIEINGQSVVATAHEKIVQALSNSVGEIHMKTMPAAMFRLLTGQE

T7: PDZRN3_1, Q9UPQ7
T7 sequence (Q9UPQ7 244-349, limits assumed, looked up): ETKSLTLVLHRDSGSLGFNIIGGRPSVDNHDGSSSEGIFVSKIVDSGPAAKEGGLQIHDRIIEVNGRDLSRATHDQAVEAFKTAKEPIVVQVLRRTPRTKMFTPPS


What follows are binders tested against T1, TX1BP3, O14907 (assay: holdup assay). Settings: plain residues with an end cap or a label only (N-terminal biotin on a linker: ado-ado).
Set-up: key: below the threshold = too weak to quantify, mostly under pKd 3.1 to 4
VRNLPESEEL [MYOZ3, Q8TDC0] was tested, and the pKd was “below the threshold”.

What follows are binders tested against PDZRN4_1, Q6ZMN7 (assay: holdup assay). Settings: plain residues with an end cap or a label only (N-terminal biotin on a linker: ado-ado).
Chain of PDZRN4_1, Q6ZMN7 (Q6ZMN7 213-318): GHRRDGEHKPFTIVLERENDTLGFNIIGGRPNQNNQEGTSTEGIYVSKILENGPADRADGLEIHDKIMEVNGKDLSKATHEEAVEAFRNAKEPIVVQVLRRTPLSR
Set-up: key: below the threshold = too weak to quantify, mostly under pKd 3.1 to 4
For VRNLPESEEL [MYOZ3, Q8TDC0], the pKd was “below the threshold”.

What follows are binders tested against LNX1_1, Q8TBB1 (assay: holdup assay). Settings: plain residues with an end cap or a label only (N-terminal biotin on a linker: ado-ado).
Chain of LNX1_1, Q8TBB1 (Q8TBB1 261-371): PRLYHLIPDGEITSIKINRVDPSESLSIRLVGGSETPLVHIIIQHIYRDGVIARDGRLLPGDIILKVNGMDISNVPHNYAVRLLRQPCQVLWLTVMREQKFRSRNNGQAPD
Set-up: key: below the threshold = too weak to quantify, mostly under pKd 3.1 to 4
VRNLPESEEL [MYOZ3, Q8TDC0] was tested, and the pKd was “below the threshold”.

Each binder was assayed against LNX1_3, Q8TBB1 (assay: holdup assay). Settings: plain residues with an end cap or a label only (N-terminal biotin on a linker: ado-ado).
Chain of LNX1_3, Q8TBB1 (Q8TBB1 500-596): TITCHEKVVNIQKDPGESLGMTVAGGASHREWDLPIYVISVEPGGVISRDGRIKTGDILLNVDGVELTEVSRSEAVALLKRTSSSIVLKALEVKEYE
Set-up: key: below the threshold = too weak to quantify, mostly under pKd 3.1 to 4
In the case of VRNLPESEEL [MYOZ3, Q8TDC0], the pKd is reported as “below the threshold”.

What follows are binders tested against CASK, O14936 (assay: holdup assay). Settings: plain residues with an end cap or a label only (N-terminal biotin on a linker: ado-ado).
Chain of CASK, O14936 (O14936 487-570): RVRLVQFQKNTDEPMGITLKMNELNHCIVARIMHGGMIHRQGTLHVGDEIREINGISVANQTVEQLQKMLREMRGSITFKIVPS
Set-up: key: below the threshold = too weak to quantify, mostly under pKd 3.1 to 4
VRNLPESEEL [MYOZ3, Q8TDC0] was tested, and the pKd was “below the threshold”.

Each binder was assayed against SCRIB_2, Q14160 (assay: holdup assay). Settings: plain residues with an end cap or a label only (N-terminal biotin on a linker: ado-ado).
Chain of SCRIB_2, Q14160 (Q14160 857-960): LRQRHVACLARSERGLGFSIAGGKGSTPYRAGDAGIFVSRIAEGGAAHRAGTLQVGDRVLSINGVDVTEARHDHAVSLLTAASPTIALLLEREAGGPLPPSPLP
Set-up: key: below the threshold = too weak to quantify, mostly under pKd 3.1 to 4
For VRNLPESEEL [MYOZ3, Q8TDC0], the pKd was “below the threshold”.

Each binder was assayed against Inadl_6, Q8NI35 (assay: holdup assay). Settings: plain residues with an end cap or a label only (N-terminal biotin on a linker: ado-ado).
Chain of Inadl_6, Q8NI35 (Q8NI35 1058-1167): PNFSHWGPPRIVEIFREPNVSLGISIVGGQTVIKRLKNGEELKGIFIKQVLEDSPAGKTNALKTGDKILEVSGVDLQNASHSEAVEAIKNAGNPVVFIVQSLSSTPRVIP
Set-up: key: below the threshold = too weak to quantify, mostly under pKd 3.1 to 4
In the case of VRNLPESEEL [MYOZ3, Q8TDC0], the pKd is reported as “below the threshold”.

These binders were tested against IL16_4, Q14005 (assay: holdup assay). Settings: plain residues with an end cap or a label only (N-terminal biotin on a linker: ado-ado).
Chain of IL16_4, Q14005 (Q14005 1229-1329): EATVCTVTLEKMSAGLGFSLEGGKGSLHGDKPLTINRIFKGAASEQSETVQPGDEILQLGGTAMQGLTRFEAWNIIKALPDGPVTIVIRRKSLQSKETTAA
Set-up: key: below the threshold = too weak to quantify, mostly under pKd 3.1 to 4
For VRNLPESEEL [MYOZ3, Q8TDC0], the pKd was “below the threshold”.

What follows are binders tested against GORASP1, Q9BQQ3 (assay: holdup assay). Settings: plain residues with an end cap or a label only (N-terminal biotin on a linker: ado-ado).
Chain of GORASP1, Q9BQQ3 (Q9BQQ3 1-208): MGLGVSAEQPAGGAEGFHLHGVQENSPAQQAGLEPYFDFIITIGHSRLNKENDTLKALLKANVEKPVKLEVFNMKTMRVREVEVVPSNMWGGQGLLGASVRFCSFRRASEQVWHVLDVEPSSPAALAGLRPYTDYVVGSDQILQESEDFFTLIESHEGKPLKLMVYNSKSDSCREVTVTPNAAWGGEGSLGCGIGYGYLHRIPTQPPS
Set-up: key: below the threshold = too weak to quantify, mostly under pKd 3.1 to 4
With VRNLPESEEL [MYOZ3, Q8TDC0] the pKd was “below the threshold”.

These binders were tested against SCRIB_3, Q14160 (assay: holdup assay). Settings: plain residues with an end cap or a label only (N-terminal biotin on a linker: ado-ado).
Chain of SCRIB_3, Q14160 (Q14160 999-1103): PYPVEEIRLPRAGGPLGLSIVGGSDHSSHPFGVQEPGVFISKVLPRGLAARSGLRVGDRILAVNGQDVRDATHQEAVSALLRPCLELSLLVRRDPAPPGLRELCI
Set-up: key: below the threshold = too weak to quantify, mostly under pKd 3.1 to 4
For VRNLPESEEL [MYOZ3, Q8TDC0], the pKd was “below the threshold”.

These binders were tested against GRIP2_7, Q9C0E4 (assay: holdup assay). Settings: plain residues with an end cap or a label only (N-terminal biotin on a linker: ado-ado).
Chain of GRIP2_7, Q9C0E4 (Q9C0E4 934-1023): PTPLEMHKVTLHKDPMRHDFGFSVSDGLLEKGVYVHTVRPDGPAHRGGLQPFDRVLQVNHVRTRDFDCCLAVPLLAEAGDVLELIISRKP
Set-up: key: below the threshold = too weak to quantify, mostly under pKd 3.1 to 4
VRNLPESEEL [MYOZ3, Q8TDC0] was tested, and the pKd was “below the threshold”.

The binders below were run against MAGI1_1, Q96QZ7 (assay: holdup assay). Settings: plain residues with an end cap or a label only (N-terminal biotin on a linker: ado-ado).
Chain of MAGI1_1, Q96QZ7 (Q96QZ7 1-106): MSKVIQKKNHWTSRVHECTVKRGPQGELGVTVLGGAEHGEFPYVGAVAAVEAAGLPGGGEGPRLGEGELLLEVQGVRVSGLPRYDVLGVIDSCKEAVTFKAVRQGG
Set-up: key: below the threshold = too weak to quantify, mostly under pKd 3.1 to 4
In the case of VRNLPESEEL [MYOZ3, Q8TDC0], the pKd is reported as “below the threshold”.

Each binder was assayed against FRMPD4, Q14CM0 (assay: holdup assay). Settings: plain residues with an end cap or a label only (N-terminal biotin on a linker: ado-ado).
Chain of FRMPD4, Q14CM0 (Q14CM0 67-160): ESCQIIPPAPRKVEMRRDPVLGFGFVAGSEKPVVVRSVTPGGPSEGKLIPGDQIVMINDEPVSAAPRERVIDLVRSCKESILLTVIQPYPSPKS
Set-up: key: below the threshold = too weak to quantify, mostly under pKd 3.1 to 4
In the case of VRNLPESEEL [MYOZ3, Q8TDC0], the pKd is reported as 3.89.

What follows are binders tested against DLG4_3, P78352 (assay: holdup assay). Settings: plain residues with an end cap or a label only (N-terminal biotin on a linker: ado-ado).
Chain of DLG4_3, P78352 (P78352 306-403): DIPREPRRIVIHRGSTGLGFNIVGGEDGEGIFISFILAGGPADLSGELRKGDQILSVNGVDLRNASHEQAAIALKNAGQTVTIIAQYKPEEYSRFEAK
Set-up: key: below the threshold = too weak to quantify, mostly under pKd 3.1 to 4
For VRNLPESEEL [MYOZ3, Q8TDC0], the pKd was “below the threshold”.

The binders below were run against T2, GRIP1_3, Q9Y3R0 (assay: holdup assay). Settings: plain residues with an end cap or a label only (N-terminal biotin on a linker: ado-ado).
Set-up: key: below the threshold = too weak to quantify, mostly under pKd 3.1 to 4
VRNLPESEEL [MYOZ3, Q8TDC0] was tested, and the pKd was “below the threshold”.

The binders below were run against SNX27, Q96L92 (assay: holdup assay). Settings: plain residues with an end cap or a label only (N-terminal biotin on a linker: ado-ado).
Set-up: key: below the threshold = too weak to quantify, mostly under pKd 3.1 to 4
For VRNLPESEEL [MYOZ3, Q8TDC0], the pKd was 3.71.

These binders were tested against T3, GRIP1_5, Q9Y3R0 (assay: holdup assay). Settings: plain residues with an end cap or a label only (N-terminal biotin on a linker: ado-ado).
Set-up: key: below the threshold = too weak to quantify, mostly under pKd 3.1 to 4
With VRNLPESEEL [MYOZ3, Q8TDC0] the pKd was “below the threshold”.

These binders were tested against T4, SNTB1, Q13884 (assay: holdup assay). Settings: plain residues with an end cap or a label only (N-terminal biotin on a linker: ado-ado).
Set-up: key: below the threshold = too weak to quantify, mostly under pKd 3.1 to 4
In the case of VRNLPESEEL [MYOZ3, Q8TDC0], the pKd is reported as “below the threshold”.

What follows are binders tested against T5, RADIL, Q96JH8 (assay: holdup assay). Settings: plain residues with an end cap or a label only (N-terminal biotin on a linker: ado-ado).
Set-up: key: below the threshold = too weak to quantify, mostly under pKd 3.1 to 4
In the case of VRNLPESEEL [MYOZ3, Q8TDC0], the pKd is reported as “below the threshold”.

What follows are binders tested against T6, APBA2_2, Q99767 (assay: holdup assay). Settings: plain residues with an end cap or a label only (N-terminal biotin on a linker: ado-ado).
Set-up: key: below the threshold = too weak to quantify, mostly under pKd 3.1 to 4
In the case of VRNLPESEEL [MYOZ3, Q8TDC0], the pKd is reported as “below the threshold”.

The binders below were run against LNX1_2, Q8TBB1 (assay: holdup assay). Settings: plain residues with an end cap or a label only (N-terminal biotin on a linker: ado-ado).
Chain of LNX1_2, Q8TBB1 (Q8TBB1 371-470): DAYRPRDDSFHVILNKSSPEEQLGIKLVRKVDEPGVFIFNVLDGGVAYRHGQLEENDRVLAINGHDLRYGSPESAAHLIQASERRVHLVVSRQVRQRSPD
Set-up: key: below the threshold = too weak to quantify, mostly under pKd 3.1 to 4
For VRNLPESEEL [MYOZ3, Q8TDC0], the pKd was “below the threshold”.

Each binder was assayed against MAGI1_2, Q96QZ7 (assay: holdup assay). Settings: plain residues with an end cap or a label only (N-terminal biotin on a linker: ado-ado).
Chain of MAGI1_2, Q96QZ7 (Q96QZ7 456-580): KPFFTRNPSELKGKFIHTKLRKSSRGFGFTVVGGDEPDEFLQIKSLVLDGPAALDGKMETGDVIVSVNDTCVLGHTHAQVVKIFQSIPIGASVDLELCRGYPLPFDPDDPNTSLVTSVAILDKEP
Set-up: key: below the threshold = too weak to quantify, mostly under pKd 3.1 to 4
For VRNLPESEEL [MYOZ3, Q8TDC0], the pKd was “below the threshold”.

The binders below were run against PICK1, Q9NRD5 (assay: holdup assay). Settings: plain residues with an end cap or a label only (N-terminal biotin on a linker: ado-ado).
Chain of PICK1, Q9NRD5 (Q9NRD5 17-115): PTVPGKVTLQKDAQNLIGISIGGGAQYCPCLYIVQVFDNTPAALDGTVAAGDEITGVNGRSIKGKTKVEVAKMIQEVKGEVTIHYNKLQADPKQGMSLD
Set-up: key: below the threshold = too weak to quantify, mostly under pKd 3.1 to 4
VRNLPESEEL [MYOZ3, Q8TDC0] showed a pKd of 4.05.

Each binder was assayed against MAGI2_6, Q86UL8 (assay: holdup assay). Settings: plain residues with an end cap or a label only (N-terminal biotin on a linker: ado-ado).
Chain of MAGI2_6, Q86UL8 (Q86UL8 1141-1229): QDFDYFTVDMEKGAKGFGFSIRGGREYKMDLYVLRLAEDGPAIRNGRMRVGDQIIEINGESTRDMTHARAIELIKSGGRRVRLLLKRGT
Set-up: key: below the threshold = too weak to quantify, mostly under pKd 3.1 to 4
Binder VRNLPESEEL [MYOZ3, Q8TDC0] has a pKd of 4.01.

What follows are binders tested against FRMPD3, Q5JV73 (assay: holdup assay). Settings: plain residues with an end cap or a label only (N-terminal biotin on a linker: ado-ado).
Chain of FRMPD3, Q5JV73 (Q5JV73 12-100): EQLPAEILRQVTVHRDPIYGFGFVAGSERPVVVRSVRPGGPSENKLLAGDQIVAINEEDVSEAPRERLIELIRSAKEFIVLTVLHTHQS
Set-up: key: below the threshold = too weak to quantify, mostly under pKd 3.1 to 4
For VRNLPESEEL [MYOZ3, Q8TDC0], the pKd was “below the threshold”.

Each binder was assayed against MAGI2_5, Q86UL8 (assay: holdup assay). Settings: plain residues with an end cap or a label only (N-terminal biotin on a linker: ado-ado).
Chain of MAGI2_5, Q86UL8 (Q86UL8 915-1017): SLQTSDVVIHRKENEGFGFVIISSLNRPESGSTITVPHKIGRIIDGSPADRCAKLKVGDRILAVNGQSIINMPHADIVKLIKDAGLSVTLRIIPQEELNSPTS
Set-up: key: below the threshold = too weak to quantify, mostly under pKd 3.1 to 4
In the case of VRNLPESEEL [MYOZ3, Q8TDC0], the pKd is reported as “below the threshold”.

What follows are binders tested against T7, PDZRN3_1, Q9UPQ7 (assay: holdup assay). Settings: plain residues with an end cap or a label only (N-terminal biotin on a linker: ado-ado).
Set-up: key: below the threshold = too weak to quantify, mostly under pKd 3.1 to 4
For VRNLPESEEL [MYOZ3, Q8TDC0], the pKd was “below the threshold”.

What follows are binders tested against Inadl_1, Q8NI35 (assay: holdup assay). Settings: plain residues with an end cap or a label only (N-terminal biotin on a linker: ado-ado).
Chain of Inadl_1, Q8NI35 (Q8NI35 113-229): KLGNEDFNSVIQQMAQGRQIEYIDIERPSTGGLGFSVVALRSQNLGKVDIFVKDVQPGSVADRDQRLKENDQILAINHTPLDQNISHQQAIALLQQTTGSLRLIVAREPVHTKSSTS
Set-up: key: below the threshold = too weak to quantify, mostly under pKd 3.1 to 4
In the case of VRNLPESEEL [MYOZ3, Q8TDC0], the pKd is reported as “below the threshold”.

These binders were tested against GRIP2_4, Q9C0E4 (assay: holdup assay). Settings: plain residues with an end cap or a label only (N-terminal biotin on a linker: ado-ado).
Chain of GRIP2_4, Q9C0E4 (Q9C0E4 446-548): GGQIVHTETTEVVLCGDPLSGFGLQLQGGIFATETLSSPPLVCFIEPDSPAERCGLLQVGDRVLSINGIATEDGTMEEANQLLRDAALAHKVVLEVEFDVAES
Set-up: key: below the threshold = too weak to quantify, mostly under pKd 3.1 to 4
With VRNLPESEEL [MYOZ3, Q8TDC0] the pKd was “below the threshold”.

The binders below were run against DLG4_2, P78352 (assay: holdup assay). Settings: plain residues with an end cap or a label only (N-terminal biotin on a linker: ado-ado).
Chain of DLG4_2, P78352 (P78352 155-259): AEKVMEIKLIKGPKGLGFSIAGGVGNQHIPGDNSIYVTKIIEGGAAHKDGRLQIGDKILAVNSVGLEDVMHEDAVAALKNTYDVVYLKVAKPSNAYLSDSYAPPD
Set-up: key: below the threshold = too weak to quantify, mostly under pKd 3.1 to 4
With VRNLPESEEL [MYOZ3, Q8TDC0] the pKd was “below the threshold”.
